Test results: the DeepSol protein solubility set

Assay: soluble on expression in E. coli; label from the status in PepcDB or PDB records

Sequence	soluble on expression in E. coli
MSPKSLLITGANRGIGLGLLKQFLKHKDIQIIIATCRDPSKAEELSNLKDSRLHILPLDIDCDESISKLYAEVEKLVGEDGLTVLLNNAGILLPYDVEGEKNRKTLIRQLETNSVSTALITQEFLPLLKKAAAKNGGDGYSINRAAIVNISSTAASVEKIDGTFNGPLVAYRMSKSALNSFAKSCSIDLAKYHILVTSFCPGWVKTGMGGANAMLEIEDATKTLSDNILTLGNAHHGAYLNADLTVIPN	soluble
MSPMNRQRKNKSHVLNEKDERPGGIIKEKSSVRSMAKTQPPSGRTISLTEINKPNALSKKNTEIKAAVEIQNRLTKKMAKNSERRKQMAHGPEMTAQNRTQERIDFVDFLDRHYQVIQAGVHKIQYTKEEFENVIYEAQTIFSSEKALVDIDPPCVVVGDLHGQFNDLINMFILLGRPPETVYVFTGDYVDRGMMSLECIMLLFTYKICYPENIVLLRGNHEIARVNKKYGFYEECVTSIPKCGEEIWALFQRCFNNLPISALIATKILCMHGGLSPALTCLDELRNHPKPIRNPFRGIVNDMLWADPDPSVFEWKASSRGSGFTFGTNVIDDVCKRLGVELIIRAHQMCFDGYWVLSGRKLITIFSAPMYCNFYKNAGCVLKVDETLGIQMIAFVPASENIEKIIEEKNRVWDISIDCID	not soluble
MSPSASDKPLPPHHAEHMAEAVAEACRGVECGDGGPFGAVVVDSNGKVVAKGHNMVLVTKDPTMHAEMTAIKNACKALGTFDLSGHILYTSCYPCPMCMGGCLWARFDAIYYGATAQQAAEIGFDDKAFHDFLKDPKSDEIRKLEHLAADNYLLPFQMWSNKPDKTEY	soluble
MSQENIIYFSDYICITKGADGFYIESYKKGMSVDEFNKIIGRHPEIKITSFMAIKNAILFAPKPPVKFGEVKDRISVELSSDELKAYIRLCVEEWEFSGDARVKLMEEISKSLEKAGVVFGIKEDVLLDGLCNNKQILIAEGIPPEHGEDAVIRMYEIKKAKPAIKEDGRVDHYELNLINKVKTGDWLGERIDPTPGTAGKSVKGNPIPARPGRNYPLHYDKNSVREERKGGVTYLYALKSGAVHYEGDRISVSNHLEIDGDVDFKTGNINFDGFVTIKGTVADGFSVVAVKDVEILGTIGIGSVKEVVSKEGSIYIKGGIAGKNKAVIKAKKDVYTKYISDATVACEGSLHVGLYCINSNITAREIIIDSPKGQISGGNIQCETKVLSPVLGSPSEKRTVISVKGFNRNTLKERLEEVMKNIETLKNELVKVKAEVNAYFENEQNGKVGSLKAEDIRQRFNRIKNELTELEEEKKAISDTLRTRGEGEISILKKAYPGVVIGIKNIIKEIDRPIVNTTFYIQDGYIKEV	soluble
MSQIKNYMEEVVFSLMKDVLSDINVCSCEKCRMDIAAIALNNLPPKYIVTDKGELYSKVDSLKQQFEVDVISALAKAAVIVKRNPRHE	not soluble
MSQPAKVLLLYAHPESQDSVANRVLLKPAIQHNNVTVHDLYARYPDFFIDTPYEQALLREHDVIVFQHPLYTYSCPALLKEWLDRVLSRGFASGPGGNQLVGKYWRSVITTGEPESAYRYDALNRYPMSDVLRPFELTAAMCRMHWMPPIIVYWARRQSPQTLASHAKAYGEWLANPVSAGGY	not soluble
MSQPCPCGSADEYSLCCGRIVSGERVAPDPSHLMRSRYCAFVMKDADYLIKSWHPTCNAAAFRDDIIAGFANTRWLGLTIFEHTWSEAENTGYVSFIARFSEQGKNGAIIERSRFIKENGQWYYIDGTRPQLGRNDPCPCGSGKKFKKCCGQ	not soluble
MSQRIIQPSASDQQFPGKSDGYEYTVGPKQAITSEASTTYIPSRIYSESLLFKRQEASLSAMAFLFQEMISQLHRTCKTAGDFETKLSDYGHNIGIRLLELLNFRASVSPSSLPRASAFLSQNESSSKLSNASNSPGMLANSSTATSASANERLQEKQTESLSNYITKMRRRDLKILDILQFIHGTLWSYLFNHVSDDLVKSSERDNEYMIVDNFPTLTQFIPGENVSCEYFVCGIIKGFLFNAGFPCGVTAHRMPQGGHSQRTVYLIQFDRQVLDREGLRFG	soluble
MSQTNESFAALFEESIARSNMKAGEVISAEVVRIDHNFVVVNAGLKSEAFVPVEEFLNDQGELEVQVGDYVSVAIDALENGYGDTILSRDKAKRLASWLNLEKALESGEIISGTVTGKVKGGLTVMVNGIRAFLPGSLVDVRPIKDTTPYEGKTLEFKVIKLDRKRNNVVLSRRAVVEATLGEERQKLMETLKEGAIVNGIVKNITDYGAFVDLGGIDGLLHITDLAWRRVRHPSEVLSVGQEITAKILKFDQEKNRVSLGVKQLGEDPWVGISRRYPQGTRLFGKVTNLTDYGAFVEIEAGIEGLVHVSEMDWTNKNVAPSKVVQLGDEVEVMVLDIDEDKRRISLGMKQCKANPWDDFARNHKKGDKLAGQIKSITDFGVFIGLPGGIDGLVHLSDLSWQETGEEAVRKYKKGDEVEAVVLAIDVEKERISLGIKQLSGDPFNNFISANDKGSIVSVTIKTVDPKGAVVQLADDVEGYLRASEISSDRVEDARNVLKEGETMTAMIVNIDRKSRNINVSIKAKDSADQQEAMQKFAQDTGTAGTTNLGALLKAKLNETNQLEHHHHHH	soluble
MSQVFKDFDLSSVWKTNSWADENYKEAPFTPEILAAVESELGYKLPQSFIELMAVQNGGIFVKNCFPTTQRNSWAENHVQICEVSGIGFEKEGSLCGAMGQKLWLEEWEYPPIGVYFANDPSGGHAMFALDYRACGKDGEPKVVFVEQESDFEIVELAPDFETFIRSLRHEDEFIDEEI	not soluble
MSQVQEQHISESQLQYGNGSLMSTVPADLSQSVVDGNGNGSSEDIEATNGSGDGGGLQEQAEAQGEMEDEAYDEAALGSFVPIEKLQVNGITMADVKKLRESGLHTAEAVAYAPRKDLLEIKGISEAKADKLLNEAARLVPMGFVTAADFHMRRSELICLTTGSKNLDTLLGGGVETGSITELFGEFRTGKSQLCHTLAVTCQIPLDIGGGEGKCLYIDTEGTFRPVRLVSIAQRFGLDPDDALNNVAYARAYNADHQLRLLDAAAQMMSESRFSLIVVDSVMALYRTDFSGRGELSARQMHLAKFMRALQRLADQFGVAVVVTNQVVAQVDGGMAFNPDPKKPIGGNIMAYSSTTRLGFKKGKGCQRLCKVVDSPCLPEAECVFAIYEDGVGDPREEDE	soluble
MSRDNQEIKAPEESSAEEQKEMDDKVTSPEKAEEIKLKSRYPNIGPKPGGSDFLRKRLQKGQKYFDSGDYNMAKAKMKNKQLPTAAPDKTEVTGDHIPTPQDLPQRKPSLVASKLAG	soluble
MSRFVQDLSKAMSQDGASQFQEVILQELELSVKKELEKILTTAASHEFEHTKKDLDGFRKLFHRFLQEKGPSVDWGKIQRPPEDSIQPYEKIKARGLPDNISSVLNKLVVVKLNGGLGTSMGCKGPKSLIGVRNENTFLDLTVQQIEHLNKTYNTDVPLVLMNSFNTDEDTKKILQKYNHCRVKIYTFNQSRYPRINKESLLPIAKDVSYSGENTEAWYPPGHGDIYASFYNSGLLDTFIEEGKEYIFVSNIDNLGATVDLYILNHLMNPPNGKRCEFVMEVTNKTRADVKGGTLTQYEGKLRLVEIAQVPKAHVDEFKSVSKFKIFNTNNLWISLGAVKRLQEQNAIDMEIIVNPKTLDGGLNVIQLETAVGAAIKSFENSLGINVPRSRFLPVKTTSDLLLVMSNLYSLNAGSLTMSEKREFPTVPLVKLGSSFTKVQDYLRRFESIPDMLELDHLTVSGDVTFGKNVSLKGTVIIIANHGDRIDIPPGAVLENKIVSGNLRILDH	soluble
MSRGFALLGWLNPAQRQAVTAPCGHLCINAAAGTGKTTTVAARILWLQLVQDVPPEAILAVTFSRAARAHLLDRVEAFTRVLGAGGAVPTFTLHGLAYRILRIAIGAGETWLRPGFGVISVGRDRINPLLQEHAADLLGDLSDPWDLPTRVEQYSRALDAVRQGCADIEEGLPLEPDDLPDGVLYVPARIETPNLRKVWRRYNRMLRARNYLDYPGMVTEAILALYREGKTLQRARANLEYIIVDEYQDTSRAQEELIQLLVGERTSVTVVGDSDQAIYTFNGADIGNILHFAERILETGSALPVLEPVHLVENYRSSACILDAANRVLDRIHGPGRKQLVPYPGTVDEPVESYRRRNLEVVRVHAGSLDQAAFWAASEIARLVTEEGIEPSDIAVLVRKDTEHAPQGRAVRLALERLGIRAEEQERDPIRSSHVYEVVRDLCGDPDYYGEDIGDMIERIAAGEFRDALGDVTPDEATALLREAQAAGAEFAGEVVDFVFEQGAPDATPASLEGVQVRTIHSAKGLEFRVVFLMYLSDREFPHGAHPDVAEERRLYYVGLTRAQERLYVLGQPGVRNEDFFGAIDGSGVVTVHVEPWRDRSPSSEEAVDDETLRLIQEARRRQHDMFLRRP	soluble
MSRHWPLFDLRITTPRLQLQLPTEELCDQLIDTILEGVHDPDRMPFSVPWTRASREDLPFNTLSHLWQQLAGFKRDDWSLPLAVLVDGRAVGVQALSSKDFPITRQVDSGSWLGLRYQGHGYGTEMRAAVLYFAFAELEAQVATSRSFVDNPASIAVSRRNGYRDNGLDRVAREGAMAEALLFRLTRDDWQRHRTVEVRVDGFDRCRPLFGPLEPPRY	soluble
MSRKNILQGLMAGTPSPAPAAAERPRATKGAIGAVSRSIADLKARAVIEVDPFLIDAGGLQDRLESDAAEDAELARSIATYGQQVPVLVRPHPTDENRFQIVYGRRRVLALRDLGQPVKALVRDLDDREAVLAQGQENTARRDLSFIEKVNFARQMADAGYDRKAICDALSVDKTLISRMVSVSERVPVALIEAIGAASGIGRDRWLALAELMEKTDDDLDTLISTMSLTAEGQGSDQRFEALFSYLSGQRRREPPAPLRTEPITGHDGRPLGDVSRGAASVVLRLRRSHAKGFEEWLLQNLPDLHRSWQSDRNGK	not soluble
MSRKNISLTESLEEYIFRNSVREPDSFLKLRKETGTLAQANMQISPEEGQFLNILTKISGAKRIIEIGTFTGYSSLCFASALPEDGKILCCDVSEEWTNVARKYWKENGLENKIFLKLGSALETLQVLIDSKSAPSWASDFAFGPSSIDLFFLDADKENYPNYYPLILKLLKPGGLLIADNVLWDGSVADLSHQEPSTVGIRKFNELVYNDSLVDVSLVPIADGVSLVRKRLEHHHHHH	soluble
MSRLLSGGVGVIFAVLFSVNVGNARDQIQITGSSTVLPYQKIVAEIFGEIYPHFKIPVIESGGTGGGIKEFCRGIGENAIDIVNASRAMKLSELQSCFDAGVKDVEEIRIGYDGIVFATDINGPDWKLQPVDIYRALAARIMKDGKLQSNNVSKWSAVNSALPGWTIAAYIPGEKH	not soluble
MSRNQNHEEYQDDTRPLSIEEQRARLRQLIIMGKERGYITYSEINDALPDDMSDADQIDNIVSMISGLGIQVTEHAPDAEDILLSDNAAVTDDDAVEEAEAALSSADSEFGRTTDPVRMYMREMGQVDLLTREDEIIIAKKIENALKNMVQAISACPGSIAEILELIEKIRKDEIRVDEVVEAIIDPNEVLLNELGLGHLETTAPEKPSNDNSDENEDDEESEEDADEISAANLAELKQKVIGHFAQIEKDYKKMIGRLEKHHSRHKDYLAYRDAIANKLLEVRFATRQIDSLSSSLRGKVENIRKLEREIRDICLDRVHMERDYFIQNFLPEITNLEWIEEEIAKGRVWSDALDRFRHAILEKQTELADMEKETRISIEELKEINKNMVSSEKETAAAKQEMIQANLRLVISIAKKYTNRGLQFLDLIQEGNIGLMKAVDKFEYRRGYKFSTYATWWIRQAITRSIADQARTIRIPVHMIETINKMNRISRQHLQETGEEPDSAKLAELMQMPEDKIRKIMKIAKEPISMETPIGDDDDSHLGDFIEDANNVAPADAAMYTSLHEVTKEILESLTPREAKVLRMRFGIDMNTDHTLEEVGRQFDVTRERIRQIEAKALRKLRHPTRSDRLRSFLDSEDSKL	soluble
